Reference: the supplement of paper PMC9170038

Tested on: MS2 coat protein
Test: apparent KD of MS2 coat protein; designed switch direction (-1 OFF switch, 1 ON switch): 1; higher = weaker reporter binding
Procedure, shortened: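 The buffer was Tris-HCl pH 7.5 with KCl, MgCl2, BSA, DTT, tRNA and Tween-20. In it, SNAP-549-labelled MS2 coat protein was titrated in doubling steps from 0.7 or 1.5 nM to 3 µM over chip-bound RNA switches transcribed by stalled E. coli RNA polymerase on Illumina chips. Apparent KD is the per-design median over clusters of curve fits to normalised fluorescence.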

[1] = input ligand: microRNA oligo, concentration not stated
[2] = Eterna round: R95, input ligand: FMN 200 uM
[3] = Eterna round: R95, input ligand: microRNA oligo, concentration not stated
[4] = Eterna round: R95, input ligand: none

Sequence: GUGAAGAAUUAAGGAUAUCGAGUCAAGAUGUUAAACAUGAGGAUCACCCAUGUGGGUUGCGGUAUCGAGAAGGUAAAUUACAAG [salish99_SSNG2_r04_501] (Eterna round: R96, puzzle: Same State NG 2)
- apparent KD of MS2 coat protein (input ligand: FMN 200 uM): 26.7 nM
- apparent KD of MS2 coat protein [1]: 25.9 nM
- apparent KD of MS2 coat protein (input ligand: none): 31.4 nM

Sequence: AGUAGUUUAACAUGAGGAUCACCCAUGUAUCUAUCUGUAACCUAGGAUAUGGACGUUGUAUUUAACCAGAAGGAGGAUCGUUUA [JR_SSNG3_Sub046] (Eterna round: R96, puzzle: Same State NG 3)
- apparent KD of MS2 coat protein [1]: 22.7 nM

Sequence: CGUUCAUACUCAGGACGGAGAGUAGAGGAACAUGAGGAUCACCCAUGUAUGAGCUUUUUGCUCGUCAUUAACAGUAG [JR_SHM208a_Sub012] (puzzle: Sensor for hsa-mir-208a)
- apparent KD of MS2 coat protein [2]: 61.8 nM
- apparent KD of MS2 coat protein [3]: 43.4 nM
- apparent KD of MS2 coat protein [4]: 81.2 nM

Sequence: CUUUUUAAUGCAGGAUAUGAUCAACAUGAGGAUCACCCAUGUGGUGUUGUGAGUAAGGAGAGUGAUCAGAAGGGCAUCUUUUCA [SS-NG2-LRO04] (Eterna round: R96, puzzle: Same State NG 2)
- apparent KD of MS2 coat protein (input ligand: FMN 200 uM): 737 nM
- apparent KD of MS2 coat protein [1]: 415 nM
- apparent KD of MS2 coat protein (input ligand: none): 435 nM

Sequence: AUAAAACAUGAGGAUCACCCAUGUCUCCAAAGUCGAGGAUAUGGGCAAAUAAUAUAAGAACCAGAAGGCGAAUAAU [SS1 Teenbexe 2] (puzzle: Same State 1)
- apparent KD of MS2 coat protein [2]: 177 nM
- apparent KD of MS2 coat protein [3]: 179 nM
- apparent KD of MS2 coat protein [4]: 374 nM

Sequence: GCAGGACGAUAAUAUAUCUUCACAUGAGGAUCACCCAUGUCUCAGGAUAUGGAUCCUAAUUGGAUCCAGAAGGGAGCGUCCUGC [Fiskers NG3ss - 33] (Eterna round: R96, puzzle: Same State NG 3)
- apparent KD of MS2 coat protein (input ligand: FMN 200 uM): 33.2 nM
- apparent KD of MS2 coat protein [1]: 43.3 nM
- apparent KD of MS2 coat protein (input ligand: none): 54.4 nM

Sequence: UGGUACAUGGGAGGAUAUCAUGUAGAAACAUGAGGAUCACCCAUGUGGAUGGAGACAUCGGAGAUUGAGAAGGCCCAUGUACCU [JL SSNG1 3.56] (Eterna round: R96, puzzle: Same State NG 2)
- apparent KD of MS2 coat protein (input ligand: FMN 200 uM): 15.6 nM
- apparent KD of MS2 coat protein [1]: 20.9 nM
- apparent KD of MS2 coat protein (input ligand: none): 25.2 nM

Sequence: GGUAGGUUACUACCAAACAUGAGGAUCACCCAUGUAAGUGGGAAGGAUAUGGUACCUUUUAGGUACCAGAAGGUCCAUAUAGUA [JL Fiskers NG3ss - 2 mod 10] (Eterna round: R96, puzzle: Same State NG 3)
- apparent KD of MS2 coat protein (input ligand: FMN 200 uM): 254 nM
- apparent KD of MS2 coat protein [1]: 783 nM
- apparent KD of MS2 coat protein (input ligand: none): 1000 nM

Sequence: UGAGCCGGCACUGAGGAUAUUCAUAAUAAAACAUGAGGAUCACCCAUGUAGGCCAGAAGGCCUUGGGAGAAGGCAGGUCGGCUCA [Mat - Same State 2 - Mod of UCT - D71] (Eterna round: R96, puzzle: Same State 2)
- apparent KD of MS2 coat protein (input ligand: FMN 200 uM): 15.7 nM
- apparent KD of MS2 coat protein [1]: 147 nM
- apparent KD of MS2 coat protein (input ligand: none): 191 nM

Sequence: GGUCCAGCCUGAGCUGGACAAAAGCAUGUACAUGAGGAUCACCCAUGUUCAUGUACAAGCUUUUUGCUCGUCUUAGC [salish99_208a_r3_071] (puzzle: Sensor for hsa-mir-208a)
- apparent KD of MS2 coat protein [2]: 534 nM
- apparent KD of MS2 coat protein [3]: 12.7 nM
- apparent KD of MS2 coat protein [4]: 468 nM

Sequence: CUCAAACAUGAGGAUCACCCAUGUGUUGUCAUGGGAGGAUAUCUAAGUUCAUUGUAUUCGGGAGAAGGCCUAUGUC [× ×•×ª×• ×ž×“×™× ×” × ×—×ª-09] (puzzle: Same State 1)
- apparent KD of MS2 coat protein [3]: 362 nM

Sequence: AGCUAUCGAAAACGAUAGCAUAAGCAUGUACAUGAGGAUCACCCAUGUCAUGUACAAGCUUUUUGCUCGUCUUAAAA [JL zipper 27] (Eterna round: R96, puzzle: Sensor for hsa-mir-208a)
- apparent KD of MS2 coat protein (input ligand: FMN 200 uM): 411 nM
- apparent KD of MS2 coat protein [1]: 14.3 nM
- apparent KD of MS2 coat protein (input ligand: none): 426 nM

Sequence: GCCCAUAGUAUAUGGGUACAAGCUUUUUGACAUGAGGAUCACCCAUGUACUCGUCUUAUGUGCAGUCCGUAGACUGC [JL-shm-2.18 Brourd mod] (puzzle: Sensor for hsa-mir-208a)
- apparent KD of MS2 coat protein [2]: 61.9 nM
- apparent KD of MS2 coat protein [3]: 15.3 nM
- apparent KD of MS2 coat protein [4]: 66.6 nM

Sequence: GCUUCACAUGAGGAUCACCCAUGUUUUCGGAGUCGAGGAUAUGGUCACUGUAAACAGUGGCCAGAAGGCGAGGAGC [SS1 - Son of Teenbexe v8] (puzzle: Same State 1)
- apparent KD of MS2 coat protein [3]: 17 nM

Sequence: AAAGGAUGAUGUUACAUGAGGAUCACCCAUGUUGUGAUAACUAAGGAUAUGUGUUAAACCAGUUAAUAGAAGGUAGGAUCAUAA [AK SSNG3-V2-5] (Eterna round: R96, puzzle: Same State NG 3)
- apparent KD of MS2 coat protein (input ligand: FMN 200 uM): 182 nM
- apparent KD of MS2 coat protein [1]: 77.1 nM
- apparent KD of MS2 coat protein (input ligand: none): 112 nM

Sequence: UUAAGCCACGGGCAGGAUAUGUAUUAAAAUACAUGAGGAUCACCCAUGUGCAGGUGUAACACCUGACAGAAGGGCCAAUCGAGGC [Soteed - 6] (puzzle: Same State 2)
- apparent KD of MS2 coat protein [2]: 36.6 nM
- apparent KD of MS2 coat protein [3]: 182 nM
- apparent KD of MS2 coat protein [4]: 284 nM

Sequence: AUUUUUAAUGCAGGAUAUGAUUAACAUGAGGAUCACCCAUGUGGUGUUGUGAGUAAGGAGAGUGAUCAGAAGGGCAUUUUUUCU [JMF's solution 88] (Eterna round: R96, puzzle: Same State NG 2)
- apparent KD of MS2 coat protein (input ligand: FMN 200 uM): 340 nM
- apparent KD of MS2 coat protein [1]: 391 nM
- apparent KD of MS2 coat protein (input ligand: none): 500 nM

Sequence: UGGCUCAGACGAGGAUAUAUGUGAUCACAUGAGGAUCACCCAUGUCUCGAGCUUCGGCUCGAGACAUAGAAGGUGUCUGAGCCU [SSNG2/3-C3] (Eterna round: R96, puzzle: Same State NG 2)
- apparent KD of MS2 coat protein (input ligand: FMN 200 uM): 53.9 nM
- apparent KD of MS2 coat protein [1]: 12.2 nM
- apparent KD of MS2 coat protein (input ligand: none): 6.64 nM

Sequence: CAUUCUUUUCCGGAGGAUAUGCUACCCUUUACAUGAGGAUCACCCAUGUUACCCUCUUCUUGUCAGUAGAAGGCCGUUUCUUAAC [Regan] (puzzle: Same State 2)
- apparent KD of MS2 coat protein [3]: 27.3 nM

Sequence: GAAAAGGCGACGCAGGAUAUGAAAGGUGAAACAUGAGGAUCACCCAUGUGCUACCUUCCGAUAAAUCAGAAGGGCGACGCCUAGA [Azaanre] (puzzle: Same State 2)
- apparent KD of MS2 coat protein [2]: 11.4 nM
- apparent KD of MS2 coat protein [3]: 9.79 nM
- apparent KD of MS2 coat protein [4]: 11.3 nM

Sequence: ACAAGCUUUUUGCUCGUCUUCAUGUAAUAACAUGAGGAUCACCCAUGUAACGUUAAAAGUCUCUCGAUAAUAGCUCA [Meechl hsa-mir-208a 1] (puzzle: Sensor for hsa-mir-208a)
- apparent KD of MS2 coat protein [2]: 132 nM
- apparent KD of MS2 coat protein [3]: 33.6 nM
- apparent KD of MS2 coat protein [4]: 348 nM

Sequence: UUGAUUAACGUAGGAUAUCGACCUACAUGAGGAUCACCCAUGUCUUUGUAUAGUUUUUUUUGUUACGAGAAGGACGUUAUGUAU [JR_SSNG2_Sub067] (Eterna round: R96, puzzle: Same State NG 2)
- apparent KD of MS2 coat protein (input ligand: FMN 200 uM): 78.6 nM
- apparent KD of MS2 coat protein [1]: 100 nM
- apparent KD of MS2 coat protein (input ligand: none): 106 nM

Sequence: GGCUAUCGCGUUCGAUAGCUUAAGCAUGUACAUGAGGAUCACCCAUGUCAUGUACAAGCUUUUUGCUCGUAUCUUAU (puzzle: Sensor for hsa-mir-208a)
- apparent KD of MS2 coat protein [2]: 94.6 nM
- apparent KD of MS2 coat protein [3]: 12.1 nM
- apparent KD of MS2 coat protein [4]: 119 nM

Sequence: UAGAAACAUGAGGAUCACCCAUGUGGGUUAAACACAGGAUAUCACGCCAAAAGAAAAGCGUGAGAAGGGUGACCGA [Xeusisus] (Eterna round: R96, puzzle: Same State 1)
- apparent KD of MS2 coat protein (input ligand: FMN 200 uM): 254 nM
- apparent KD of MS2 coat protein [1]: 696 nM
- apparent KD of MS2 coat protein (input ligand: none): 107 nM

Sequence: AACAAUCUAUCUCAGGAUAUCAUGUCAAAGACAUGAGGAUCACCCAUGUACCAGGAAACUGGUUAUGAGAAGGGAGAUAGAUUGG [Mat - Same State 2 - Mod - D28] (puzzle: Same State 2)
- apparent KD of MS2 coat protein [2]: 161 nM
- apparent KD of MS2 coat protein [3]: 438 nM
- apparent KD of MS2 coat protein [4]: 197 nM

Sequence: AUUAAACAUGAGGAUCACCCAUGUCAACAAUGUCGAGGAUAUGGGCAAAUAAAAUAAGAACCAGAAGGCGAAUAAU [salish99_ss1_r3_076] (puzzle: Same State 1)
- apparent KD of MS2 coat protein [2]: 39.9 nM
- apparent KD of MS2 coat protein [3]: 426 nM
- apparent KD of MS2 coat protein [4]: 303 nM

Sequence: AUAAAACAUGAGGAUCACCCAUGUCAACAAAGUCGAGGAUAUGGGCAAAUAAAAUAAGAACCAGAAGGCGUAUAAU [salish99_ss1_r3_034] (puzzle: Same State 1)
- apparent KD of MS2 coat protein [3]: 341 nM

Sequence: GGAGCCGGCACCGAGGAUAUUCAUAUUAAAACAUGAGGAUCACCCAUGUAGGUCAAAAGACCUUGGGAGAAGGCGGAUCGGCUCG [Xeonanis - 31] (puzzle: Same State 2)
- apparent KD of MS2 coat protein [2]: 32.1 nM
- apparent KD of MS2 coat protein [3]: 802 nM
- apparent KD of MS2 coat protein [4]: 481 nM

Sequence: CAAGAAAACGCAGGAUAUACCCGAACAACCCGGGUAGAAGGGUGACACAUGAGGAUCACCCAUGUACAUGGCAUUAGCCAUGGA [Esusxebeis] (Eterna round: R96, puzzle: Same State NG 1)
- apparent KD of MS2 coat protein (input ligand: FMN 200 uM): 1020 nM
- apparent KD of MS2 coat protein [1]: 262 nM
- apparent KD of MS2 coat protein (input ligand: none): 430 nM

Sequence: GUGCUCGUGUGAGGAUAUGCUUCCGUUUCGGCUGCAGAAGGUACUAUUAUACAUGAGGAUCACCCAUGUCUCUUUUGUUUGGUG [salish99_SSNG1_r04_910] (Eterna round: R96, puzzle: Same State NG 1)
- apparent KD of MS2 coat protein (input ligand: FMN 200 uM): 95 nM
- apparent KD of MS2 coat protein [1]: 51.9 nM
- apparent KD of MS2 coat protein (input ligand: none): 67.8 nM

Sequence: GGAGCCGGUACUGAGGAUAUUCAUAUUAAAACAUGAGGAUCACCCAUGUAGGCCAGAAGGCCUUGGGAGAAGGCAGAUCGGCUCC [Biceusra] (Eterna round: R96, puzzle: Same State 2)
- apparent KD of MS2 coat protein (input ligand: FMN 200 uM): 19 nM
- apparent KD of MS2 coat protein [1]: 132 nM
- apparent KD of MS2 coat protein (input ligand: none): 233 nM

Sequence: UUGGUUCUCGUAGGAUAUGUAGGAUAUGCCUACAUGAGGAUCACCCAUGUUCGCAUGGCAGAAGGACAGAAGGACGAUCACCAU [pwkr ssNG2 2FMN + 1F5.17] (Eterna round: R96, puzzle: Same State NG 2)
- apparent KD of MS2 coat protein [1]: 136 nM
